According to the supplement of paper PMC11780869:

System: Bacillus subtilis
Experiment: cleaved RNA product abundance (RNA/gDNA barcode ratio) relative to median wild-type variant (ratio to wild type); higher = more accumulation of the downstream cleavage product
Details: cleavage site: cggR-gapA (positions -7 to +36 mutated)
How it was run: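 Sequencing of barcodes from gel-selected, reverse-transcribed cleaved RNA and from genomic DNA, with UMI collapsing, yielded a per-construct RNA:gDNA ratio. Scaled to the median construct with the unmutated site, this ratio is the cleaved product abundance. The barcoded reporters (truncated aprE or tetM mRNAs with mutagenized RNase Y cleavage-site windows) were integrated into the B. subtilis chromosome, and cultures grew in LB at 37°C from OD600 0.0003 to 0.3.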

[1] = experiment (reporter, strain, medium): exp 2b: truncated aprE reporter, strain BJT200
[2] = experiment (reporter, strain, medium): exp 4a: truncated aprE reporter, strain BJT201 with 2% xylose (RNase J1 expressed)
[3] = experiment (reporter, strain, medium): exp 6: tetM reporter, strain 168

Row | Sequence | cleaved RNA product abundance [1] | cleaved RNA product abundance [2] | cleaved RNA product abundance [3]
1 | ACAGACGAAGGAGCCGCAAAGAAGTTATTTAGGGATGAATAATCCGTCAATATAAATATCTCTCACTTATTTAAA | 0.169 | 0.247 | –
2 | ACAGACGAAGGAGCCGCAAAGAAGTTATTTAGGGATGAATAATCCTTCAATATAAATATCTCTCACTTATTTAAA | – | 0.531 | –
3 | ACAGACGAAGGAGCCGCAAAGAAGTTATTTAGGGATGAATAATCGCTCAATATAAATATCTCTCACTTATTTAAA | – | 0.0995 | –
4 | ACAGACGAAGGAGCCGCAAAGAAGTTATTTAGGGATGAATAATCTCTCAATATAAATATCTCTCACTTATTTAAA | – | 0.646 | –
5 | ACAGACGAAGGAGCCGCAAAGAAGTTATTTAGGGATGAATAATTCCTCAATATAAATATCTCTCACTTATTTAAA | – | 0.405 | –
6 | ACAGACGAAGGAGCCGCAAAGAAGTTATTTAGGGATGAATCATCCCTCAATATAAATATCTCTCACTTATTTAAA | – | 0.542 | –
7 | ACAGACGAAGGAGCCGCAAAGAAGTTATTTAGGGATGACTAATCCCTCAATATAAATATCTCTCACTTATTTAAA | – | 0.541 | –
8 | ACAGACGAAGGAGCCGCAAAGAAGTTATTTAGGGATGATTAATCCCTCAATATAAATATCTCTCACTTATTTAAA | – | 0.659 | –
9 | ACAGACGAAGGAGCCGCAAAGAAGTTATTTAGGGATTAATAATCCCTCAATATAAATATCTCTCACTTATTTAAA | 0.951 | 1.08 | –
10 | ACAGACGAAGGAGCCGCAAAGAAGTTATTTAGGGTTGAATAATCCCTCAATATAAATATCTCTCACTTATTTAAA | 0.225 | 0.344 | –
11 | ACAGACGAAGGAGCCGCAAAGAAGTTATTTAGGTATGAATAATCCCTCAATATAAATATCTCTCACTTATTTAAA | 0.121 | 0.165 | –
12 | ACAGACGAAGGAGCCGCAAAGAAGTTATTTAGTGATGAATAATCCCTCAATATAAATATCTCTCACTTATTTAAA | 0.0988 | 0.111 | –
13 | ACAGACGAAGGAGCCGCAAAGAAGTTATTTATGGATGAATAATCACTCAATATAAATATCTCTCACTTATTTAAA | – | 0.124 | –
14 | ACAGACGAAGGAGCCGCAAAGAAGTTATTTATGGATGAATAATCCCTCAATATAAATATCTCTCACTTATTTAAA | – | 0.165 | –
15 | ACAGACGAAGGAGCCGCAAAGAAGTTCATAAGGGATGAATAATCCCTCAATATAAATATCTCTCACTTATTTAAA | 0.162 | – | –
16 | ACAGACGAAGGAGCCGCAAAGAAGTTCTGAAGGGATGAATAATCCCTCAATATAAATATCTCTCACTTATTTAAA | 0.193 | – | –
17 | ACAGACGAAGGAGCCGCAAAGAAGTTCTTAAAGGATGAATAATCCCTCAATATAAATATCTCTCACTTATTTAAA | – | 0.112 | –
18 | ACAGACGAAGGAGCCGCAAAGAAGTTCTTAAGAGATGAATAATCCCTCAATATAAATATCTCTCACTTATTTAAA | – | 0.117 | –
19 | ACAGACGAAGGAGCCGCAAAGAAGTTCTTAAGGAATGAATAATCCCTCAATATAAATATCTCTCACTTATTTAAA | – | 0.133 | –

Row | Sequence | cleaved RNA product abundance [1] | cleaved RNA product abundance [2] | cleaved RNA product abundance [3]
20 | ACAGACGAAGGAGCCGCAAAGAAGTTCTTAAGGCATGAATAATCCCTCAATATAAATATCTCTCACTTATTTAAA | 0.092 | 0.122 | –
21 | ACAGACGAAGGAGCCGCAAAGAAGTTCTTAAGGGAAGAATAATCCCTCAATATAAATATCTCTCACTTATTTAAA | – | 0.113 | –
22 | ACAGACGAAGGAGCCGCAAAGAAGTTCTTAAGGGATAAATAATCCCTCAATATAAATATCTCTCACTTATTTAAA | 0.104 | 0.212 | –
23 | ACAGACGAAGGAGCCGCAAAGAAGTTCTTAAGGGATCAATAATCCCTCAATATAAATATCTCTCACTTATTTAAA | – | 0.205 | –
24 | ACAGACGAAGGAGCCGCAAAGAAGTTCTTAAGGGATGAAGAATCCCTCAATATAAATATCTCTCACTTATTTAAA | 0.14 | – | –
25 | ACAGACGAAGGAGCCGCAAAGAAGTTCTTAAGGGATGAATAATACCTCAATATAAATATCTCTCACTTATTTAAA | – | 0.14 | –
26 | ACAGACGAAGGAGCCGCAAAGAAGTTCTTAAGGGATGAATAATCCATCAATATAAATATCTCTCACTTATTTAAA | – | 0.199 | –
27 | ACAGACGAAGGAGCCGCAAAGAAGTTCTTAAGGGATGAATAATCCCACAATATAAATATCTCTCACTTATTTAAA | 0.119 | – | –
28 | ACAGACGAAGGAGCCGCAAAGAAGTTCTTAAGGGATGAATAATCCCTAAATATAAATATCTCTCACTTATTTAAA | 0.236 | 0.193 | –
29 | ACAGACGAAGGAGCCGCAAAGAAGTTCTTAAGGGATGAATAATCCCTCAAAATAAATATCTCTCACTTATTTAAA | – | 0.182 | –
30 | ACAGACGAAGGAGCCGCAAAGAAGTTCTTAAGGGATGAATAATCCCTCAATATAAAAATCTCTCACTTATTTAAA | 0.181 | – | –
31 | ACAGACGAAGGAGCCGCAAAGAAGTTCTTAAGGGATGAATAATCCCTCAATATAAATAACTCTCACTTATTTAAA | – | 0.162 | –
32 | ACAGACGAAGGAGCCGCAAAGAAGTTCTTAAGGGATGAATAATCCCTCAATATAAATATCTCTCACTTATTTAAA | 0.168 | 0.254 | 0.299
33 | ACAGACGAAGGAGCCGCAAAGAAGTTCTTAAGGGATGAATAATCCCTCAATTTAAATATCTCTCACTTATTTAAA | – | 0.0838 | –
34 | ACAGACGAAGGAGCCGCAAAGAAGTTCTTAAGGGATGAATAATCCTTCAATATAAATATCTCTCACTTATTTAAA | 0.139 | – | –
35 | ACAGACGAAGGAGCCGCAAAGAAGTTCTTAAGGGATGAATAATCTCTCAATATAAATATCTCTCACTTATTTAAA | – | 0.199 | –
36 | ACAGACGAAGGAGCCGCAAAGAAGTTCTTAAGGGATGAATAATGCCTCAATATAAATATCTCTCACTTATTTAAA | 0.0955 | – | –
37 | ACAGACGAAGGAGCCGCAAAGAAGTTCTTAAGGGATGAATATTCCCTCAATATAAATATCTCTCACTTATTTAAA | – | 0.245 | –
38 | ACAGACGAAGGAGCCGCAAAGAAGTTCTTAAGGGATGAATGATCCCTCAATATAAATATCTCTCACTTATTTAAA | 0.107 | – | –

Row | Sequence | cleaved RNA product abundance [1] | cleaved RNA product abundance [2] | cleaved RNA product abundance [3]
39 | ACAGACGAAGGAGCCGCAAAGAAGTTCTTAAGGGATGAATTATCCCTCAATATAAATATCTCTCACTTATTTAAA | – | 0.126 | –
40 | ACAGACGAAGGAGCCGCAAAGAAGTTCTTAAGGGATTAATAATCCCTCAATATAAATATCTCTCACTTATTTAAA | – | 0.301 | –
41 | ACAGACGAAGGAGCCGCAAAGAAGTTCTTAAGGTATGAATAATCCCTCAATATAAATATCTCTCACTTATTTAAA | – | 0.145 | –
42 | ACAGACGAAGGAGCCGCAAAGAAGTTCTTAAGTGATGAATAATCCCTCAATATAAATATCTCTCACTTATTTAAA | 0.0656 | 0.0965 | –
43 | ACAGACGAAGGAGCCGCAAAGAAGTTCTTAATGGATGAATAATCCCTCAATATAAATATCTCTCACTTATTTAAA | – | 0.119 | –
44 | ACAGACGAAGGAGCCGCAAAGAAGTTCTTCAGGGATGAATAATCCCTCAATATAAATATCTCTCACTTATTTAAA | – | 0.262 | –
45 | ACAGACGAAGGAGCCGCAAAGAAGTTGTAAAGGGATGAATAATCCCTCAATATAAATATCTCTCACTTATTTAAA | 0.272 | – | –
46 | ACAGACGAAGGAGCCGCAAAGAAGTTGTTAAAGGATGAATAATCCCTCAATATAAATATCTCTCACTTATTTAAA | – | 0.0874 | –
47 | ACAGACGAAGGAGCCGCAAAGAAGTTGTTAAGAGATGAATAATCCCTCAATATAAATATCTCTCACTTATTTAAA | – | 0.103 | –
48 | ACAGACGAAGGAGCCGCAAAGAAGTTGTTAAGCGATGAATAATCCCTCAATATAAATATCTCTCACTTATTTAAA | – | 0.0544 | –
49 | ACAGACGAAGGAGCCGCAAAGAAGTTGTTAAGGAATGAATAATCCCTCAATATAAATATCTCTCACTTATTTAAA | – | 0.136 | –
50 | ACAGACGAAGGAGCCGCAAAGAAGTTGTTAAGGCATGAATAATCCCTCAATATAAATATCTCTCACTTATTTAAA | 0.103 | – | –
51 | ACAGACGAAGGAGCCGCAAAGAAGTTGTTAAGGGAAGAATAATCCCTCAATATAAATATCTCTCACTTATTTAAA | – | 0.246 | –
52 | ACAGACGAAGGAGCCGCAAAGAAGTTGTTAAGGGATAAATAATCCCTCAATATAAATATCTCTCACTTATTTAAA | 0.279 | 0.688 | –
53 | ACAGACGAAGGAGCCGCAAAGAAGTTGTTAAGGGATGAATAAACCCTCAATATAAATATCTCTCACTTATTTAAA | – | 0.2 | –
54 | ACAGACGAAGGAGCCGCAAAGAAGTTGTTAAGGGATGAATAATACCTCAATATAAATATCTCTCACTTATTTAAA | 0.101 | – | 0.134
55 | ACAGACGAAGGAGCCGCAAAGAAGTTGTTAAGGGATGAATAATCACTCAATATAAATATCTCTCACTTATTTAAA | – | 0.0768 | –
56 | ACAGACGAAGGAGCCGCAAAGAAGTTGTTAAGGGATGAATAATCCCTAAATATAAATATCTCTCACTTATTTAAA | 0.274 | 0.376 | –
